Data on 2 substances can be found in paper PMC5716193.

What is called stoichiometry N is the number of molecules, sites or subunits per partner or assembly.

Assay [1] has as its target Opbp[1–174] fragment after deletion of TRX (Drosophila). The assay can be described thus: cross-linking.
Assay [2] concerns the target Thioredoxin-tagged Opbp[114–174] (Drosophila). The assay can be described thus: cross-linking.

In assay [1], “Opbp[1–174] fragment after deletion of TRX (domain or fragment)” gave a stoichiometry N of 2.
“Thioredoxin-tagged Opbp[114–174] (domain or fragment)” showed a stoichiometry N in assay [2] of 2.
